Measurements from US12448423 (Xencor, dated 2025).

T1: HIS-tagged human NKG2D (human, UniProt P26718 73-216, limits assumed)
T1 construct: Captured on HIS1K biosensors; not shown: HIS tag
T1 sequence (looked up): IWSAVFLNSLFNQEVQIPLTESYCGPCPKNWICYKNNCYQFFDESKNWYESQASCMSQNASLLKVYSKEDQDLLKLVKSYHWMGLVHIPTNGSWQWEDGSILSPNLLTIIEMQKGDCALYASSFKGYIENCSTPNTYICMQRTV


Molecular target: T1, HIS-tagged human NKG2D
Test: Octet (BLI): His-tagged human NKG2D captured on HIS1K biosensors, dipped into 100 nM bivalent mAb

Binder	Kd	koff	kon
XENP27614 (antibody, human IgG1, kappa, V domains shown, humanized bivalent anti-NKG2D mAb, IgG1 with ablation variants; also called mAb A[NKG2D]_H2L2_IgG1_PVA_/S267K) VH: QVQLQESGPGLVKPSETLSLTCTVSGFSLTSYGVHWIRQPPGKGLEWIGVIWAGGSTNYNPSLKSRVTISKDNSKSQVSLKLSSVTAADTAVYYCARGGYEGAAWFGYWGQGTLVTVSS VL: DIQLTQSPATLSLSPGERATLSCRASSSVSYMHWYQQKPGQSPRPLIYATSNLASGVPARFSGSGSGTDYTLTISSLEPEDFAVYYCQQWNSNPLTFGAGTKVEIKR	≤ 0.001 nM	≤ 1e-07 s⁻¹	200000 M⁻¹ s⁻¹
XENP27592 (antibody, human IgG1, kappa, V domains shown, bivalent anti-NKG2D mAb, IgG1 with ablation variants; also called 6E5A7[NKG2D]_H0L0_IgG1_PVA_/S267K) VH: QVQLQQSGPGLVQPSQSLSITCTVSGFSLTIYGVHWVRQSPGKGLEWLGVIWSGGSTDYNAAFISRLSISKDNSKRQVFFKMSSLQANDTAIYYCSRKSHDGYYGVMDYWGQGTTVTVSS VL: DIQLTQSPAILSVSPGERVSFSCRASQSIGTSIHWYQQRTNGSPRLLIKYASESISGIPSRFSGSGSGTDFTLSINGVESEDIADYYCQQSNTWPLTFGAGTKLEIKR	≤ 0.001 nM	≤ 1e-07 s⁻¹	489000 M⁻¹ s⁻¹
XENP27594 (antibody, V domains shown, bivalent anti-NKG2D mAb, IgG1 with ablation variants; also called mAb E[NKG2D]_H1L1_IgG1_PVA_/S267K) VH: EVQLVESGGGLVKPGGSLRLSCAASGFTFSSYSMNWVRQAPGKGLEWVSSITSSSSYIYYADSVKGRFTISRDNAKNSLYLQMNSLRAEDTAVYYCARDRRYFDWFPLDYRGQGTLVTVSS VL: DIQMTQSPSSLSASVGDRVTITCRASQGISSWLAWYQQKPEKAPKSLIYAASSLQSGVPSRFSGSGSGTDFTLTISSLQPEDFATYYCQQYNGYPYTFGQGTKLEIKR	0.343 nM	0.000387 s⁻¹	1.13e+06 M⁻¹ s⁻¹
XENP27591 (antibody, human IgG1, kappa, V domains shown, bivalent anti-NKG2D mAb, IgG1 with ablation variants; also called 11B2D10[NKG2D]_H0L0_IgG1_PVA_/S267K) VH: QVQLQQSGPELVRPGASVKLSCKASGYTFTSYWMNWVQQRPEQGLEWIGRIDPYDSETHYNQKFKDKAILTVDKSASTAYMQLSSLTSEDSAVYYCAKMGDYSFDYWGQGTTVTVSS VL: DIQLTQSPASLSASVGETVTITCRASGNIHNYLAWYQQKQGKSPQVLVYNAKTLADGVPSRFSGSGSGTQYSLKINSLQPEDFGSYYCQHFWSTTWTFGGGTKLEIKR	0.547 nM	0.000792 s⁻¹	1.45e+06 M⁻¹ s⁻¹
XENP27593 (antibody, human IgG1, kappa, V domains shown, bivalent anti-NKG2D mAb, IgG1 with ablation variants; also called 6H7E7[NKG2D]_H0L0_IgG1_PVA_/S267K) VH: QVQLQESGPGLVAPSQSLSITCTVSGFSLTSYGVHWIRQPPGKGLEWLGVIWAGGSTNYNSALMSRLSISKDNSKSQVFLKMNSLQIDDTAMYYCARGGYEGAAWFGYWGQGTTVTVSS VL: DIQLTQSPAILSASPGEKVTMTCRASSSVSYMHWYQQKPGSSPKPWIYATSNLASGVPARFSGSGSGTSYSLTISRVEAEDAATYYCQQWNSNPLTFGAGTKLEIKR	≤ 0.001 nM	≤ 1e-07 s⁻¹	231000 M⁻¹ s⁻¹

Second part, the binder after the results:

Kd	koff	kon	Binder
≤ 0.001 nM	≤ 1e-07 s⁻¹	254000 M⁻¹ s⁻¹	XENP27613 (antibody, human IgG1, kappa, V domains shown, humanized bivalent anti-NKG2D mAb, IgG1 with ablation variants; also called mAb A[NKG2D]_H2L1_IgG1_PVA_/S267K) VH: QVQLQESGPGLVKPSETLSLTCTVSGFSLTSYGVHWIRQPPGKGLEWIGVIWAGGSTNYNPSLKSRVTISKDNSKSQVSLKLSSVTAADTAVYYCARGGYEGAAWFGYWGQGTLVTVSS VL: DIQLTQSPSSLSASVGDRVTITCRASSSVSYMHWYQQKPGKSPKPLIYATSNLASGVPARFSGSGSGTDYTLTISSLQPEDFATYYCQQWNSNPLTFGAGTKVEIKR
0.613 nM	0.00113 s⁻¹	1.85e+06 M⁻¹ s⁻¹	XENP27597 (antibody, human IgG1, lambda, V domains shown, bivalent anti-NKG2D mAb, IgG1 with ablation variants; also called KYK-1.0[NKG2D]_H1L1_IgG1_PVA_/S267K) VH: EVQLVESGGGVVQPGGSLRLSCAASGFTFSSYGMHWVRQAPGKGLEWVAFIRYDGSNKYYADSVKGRFTISRDNSKNTKYLQMNSLRAEDTAVYYCAKDRFGYYLDYWGQGTLVTVSS VL: QPVLTQPSSVSVAPGETARIPCGGDDIETKSVHWYQQKPGQAPVLVIYDDDDRPSGIPERFFGSNSGNTATLSISRVEAGDEADYYCQVWDDNNDEWVFGGGTQLTVLG
≤ 0.001 nM	≤ 1e-07 s⁻¹	698000 M⁻¹ s⁻¹	XENP27596 (antibody, human IgG1, kappa, V domains shown, bivalent anti-NKG2D mAb, IgG1 with ablation variants; also called mAb D[NKG2D]_H1L1_IgG1_PVA_/S267K) VH: QVQLVQSGAEVKKPGASVKVSCKASGYTFTNYWMHWVRQAPGQGLEWMGEIDPSDIYTNYAQKFQGRVTMTRDTSTSTVYMELSSLRSEDTAVYYCARGIYDGYYVYGMDYWGQGTTVTVSS VL: YIQMTQSPSSLSASVGDRVTITCRSSQDISNYLNWYQQKPGKAPKLLIYYTSRLHSGVPSRFSGSGSGTDFTFTISSLQPEDIATYYCQQGKTLPRTFGGGTKVEIKR
